Square brackets hold non-standard residues; d marks the D form. Ends that are not written are not given here. * marks the point of attachment. FITC = O=C1OC2(c3ccc(O)cc3Oc3cc(O)ccc32)c2ccc(NC(=S)*)cc21; pT = C[C@@H](OP(=O)(O)O)[C@H](N)C(=O)O; pS = N[C@@H](COP(=O)(O)O)C(=O)O
Columns and labels:
Settings in all cases: both partners purified
[1] = target: T1, APLF FHA domain (forkhead-associated domain of aprataxin and PNKP-like factor) (human, UniProt Q8IW19 1-105); experiment: NMR titration; 2D 1H,15N-HSQC of 0.1 mM U-[15N] APLF-FHA as a function of phosphopeptide concentration (0–800 μM); 25 mM HEPES, 25 mM MES, 150 mM NaCl, 1 mM EDTA, pH 7.4; 35°C; lineshape simulation (two-site exchange) for Kd and τB of the 18-residue peptide
T1 sequence: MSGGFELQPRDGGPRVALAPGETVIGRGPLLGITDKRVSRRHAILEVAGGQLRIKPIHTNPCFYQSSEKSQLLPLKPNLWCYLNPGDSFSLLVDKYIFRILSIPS

[2] = target: T1, APLF FHA domain (forkhead-associated …); experiment: crystal structure; sitting drop vapor diffusion, 20°C; APLF FHA 9–10 mg/ml with peptide at a 1:1 peptide:protein ratio
[3] = target: T1, APLF FHA domain (forkhead-associated …); experiment: NMR titration; 2D 1H,15N-HSQC of 0.1 mM U-[15N] APLF-FHA as a function of phosphopeptide concentration (0–800 μM); 25 mM HEPES, 25 mM MES, 150 mM NaCl, 1 mM EDTA, pH 7.4; 35°C; lineshape simulation (two-site exchange) for Kd and τB of the 18-residue peptide; remark: listed apart in the source
[4] = target: T1, APLF FHA domain (forkhead-associated …); experiment: fluorescence polarisation; pH 5.5; apparent dissociation constants; FITC-Gly-Gly-labelled peptide with APLF FHA; 25 mM HEPES, 25 mM MES, 150 mM NaCl, 1 mM EDTA, 2 mM DTT, 0.05% Tween 20; room temperature; single-site fit
[5] = target: T1, APLF FHA domain (forkhead-associated …); experiment: fluorescence polarisation; pH 6.5; apparent dissociation constants; FITC-Gly-Gly-labelled peptide with APLF FHA; 25 mM HEPES, 25 mM MES, 150 mM NaCl, 1 mM EDTA, 2 mM DTT, 0.05% Tween 20; room temperature; single-site fit
[6] = target: T1, APLF FHA domain (forkhead-associated …); experiment: fluorescence polarisation; pH 6.0; apparent dissociation constants; FITC-Gly-Gly-labelled peptide with APLF FHA; 25 mM HEPES, 25 mM MES, 150 mM NaCl, 1 mM EDTA, 2 mM DTT, 0.05% Tween 20; room temperature; single-site fit
[7] = target: T1, APLF FHA domain (forkhead-associated …); experiment: fluorescence polarisation; pH 7.4; apparent dissociation constants; FITC-Gly-Gly-labelled peptide with APLF FHA; 25 mM HEPES, 25 mM MES, 150 mM NaCl, 1 mM EDTA, 2 mM DTT, 0.05% Tween 20; room temperature; single-site fit
[8] = target: T1, APLF FHA domain (forkhead-associated …); experiment: fluorescence polarisation; pH 7.0; apparent dissociation constants; FITC-Gly-Gly-labelled peptide with APLF FHA; 25 mM HEPES, 25 mM MES, 150 mM NaCl, 1 mM EDTA, 2 mM DTT, 0.05% Tween 20; room temperature; single-site fit

PYAG[pS][pT]DEN [XRCC1_(pSpT-9) diphosphopeptide]
Kd [1]: 80 µM

PYAGE[pT]DEN [XRCC1_(EpT-9) monophosphopeptide]
binding result [2]: binds

DPYAG[pS][pT]DENTDSEEHQE [XRCC1_(pSpT-18) diphosphopeptide, unlabelled (NMR studies)]
Kd [3]: 4 µM

{FITC}-GGQEENGEDPYAG[pS][pT]DENTDSEEHQE [FITC-Gly-Gly-XRCC1_(pSpT-24) diphosphopeptide]
Kd [4]: 6.65 ± 2.35 µM
Kd [5]: 0.32 ± 0.09 µM
Kd [6]: 3.65 ± 0.91 µM
Kd [7]: 0.16 ± 0.02 µM
Kd [8]: 0.2 ± 0.03 µM

{FITC}-GGDPYAG[pS][pT]DENEDEEEHQE [FITC-Gly-Gly-XRCC1_(pSpTEE-18) diphosphopeptide]
Kd [7]: 0.3 ± 0.07 µM

— PMC5716189 (Nucleic Acids Research, 2017)
